Experimental data taken from the supplement of paper PMC12764529.
± gives the half width of the 95% confidence interval.

Legend:
[1] = folding stability dG unfold from trypsin proteolysis; higher = more stable
Outline: (§1)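 Sequencing followed digestion of designed mini-proteins with trypsin and chymotrypsin, each at 11 concentrations in threefold dilutions together with a no-protease condition. The mini-proteins were under 80 residues, had no cysteine, sat in a PA-tagged cDNA display construct, and were kept only if AlphaFold2 dimer inter-PAE was above 15. From the counts, Bayesian fitting gave K50, and unfolding free energy was derived against a sequence-predicted unfolded-state K50 and a shared folded-state K50, per protease or combined.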

[2] = folding stability dG unfold (combined trypsin and chymotrypsin); higher = more stable
Outline: as §1

[3] = folding stability dG unfold from chymotrypsin proteolysis; higher = more stable
Outline: as §1

| Sequence | folding stability dG unfold [1] [kcal/mol] | folding stability dG unfold [2] [kcal/mol] | folding stability dG unfold [3] [kcal/mol] |
| --- | --- | --- | --- |
| SAGNIKIEDIEPNDDYYTLVIKAPENGRTIMIQYNPNNNRIPIMIFPPGGVRTIPIPMNDIEDFLKEILSAG [r5_769_TrROS] | 0.79 ± 0.086 | 0.893 ± 0.22 | 0.903 ± 0.049 |
| SAMTITVTAPPGYTLNVTVTLAGGVPLTRTFSPSQSIDITIPEGTPFSLTVTTTAPGGEVATSTLTVPLSAG [r14_568_JUSTAS] | 3.19 ± 0.12 | 3.19 ± 0.094 | 3.171 ± 0.018 |
| SAGGKPGKWRKVEIWLPPDMPDIIEEIAKNWPNVNVDTERHPENGWYPVTGYFPDPNGKPVAKIHIWSAGGS [r8_267_TrROS] | 0.185 ± 0.064 | 0.65 ± 0.2 | 0.933 ± 0.17 |
| SAIRIEEITIDPEYGVITITFDYPMPPGAEKIKFKIFIDGFKIKEIEYEVDPENGWVRMTLTIRIPKDASAG [r14_244_TrROS] | 4.09 ± 0.28 | > 6 | 6.5 ± 0.44 |
| SAGGKPLEPKIEVEVIPLPSGERVITLRVEVPPNDPLKIKFPGLKKEVEFPGDDEVEFRVVVPPDSFSAGGS [r16_56_TrMRF] | 0.662 ± 0.1 | 0.69 ± 0.14 | 0.631 ± 0.1 |
| SAGGMTIVLPNGITLTFYPDRTVTATVDFPGRPLTLTLDAASLAEAVAAVERAAAEWAAPAPPVVDLSSAGG [r13_896_TrMRF] | 2.56 ± 0.042 | 2.72 ± 0.042 | 2.824 ± 0.013 |
| SAGGMIKIEVEKKDDKLIIRIEVDGKKYEIEIPKDMTLEEALKKALEELKEKFPGKKIKIKKVEIFKPSAGG [r13_884_TrROS_Hall] | 3.22 ± 0.21 | 2.36 ± 0.28 | 2.21 ± 0.088 |
| SAGGPKTIMAMIPRDSPELRKALKWLEKAPPGEEVELKLPGKPIRITNIQPVDDWWMFSVKIPPGLKSAGGS [r16_404_TrROS] | 1.52 ± 0.16 | 0.885 ± 0.19 | 0.462 ± 0.31 |
| SAGGSAGGSAGIEIELNGKPVTIHPNPDGYYRVRFPGPGKSILIPGMPPDDIKDFAKELLSAGGSAGGSAGG [r11_1085_TrROS] | -0.161 ± 0.15 | 0.0206 ± 0.1 | 0.137 ± 0.15 |
| SSVPADAAPVTVTETVTVTLPVDTATGGVPEERVAAAREAAAARGFTEFTVTTDPAAGTVTVTVTRTSRVSA [r9_201_JUSTAS] | 0.77 ± 0.055 | 1.11 ± 0.054 | 1.27 ± 0.035 |
| SAKKLIIKVEVETFDEETGELKTEERTIEADTLEDALAEIERELPPGARVRIEVFDADGKLVETIEIELSAG [r14_234_TrROS_Hall] | 4.41 ± 0.23 | 3.92 ± 0.15 | 3.1 ± 0.091 |
| SAGGMKVIELTVDEIKELADKLKENKNLKATIYVNGKKVELEFDTVEDALKALKVKPGDTVLIEIEPSAGGS [r16_377_TrROS_Hall] | 2.6 ± 0.051 | 3.48 ± 0.068 | 3.88 ± 0.07 |
| SAGGSAGGSMYIVNIKFYNPKTGKVLYIPIKTKKEKAEEIAKELAKKLPEIKYIKAEIKPDISSAGGSAGGS [r12_757_TrMRF] | 1.21 ± 0.093 | 1.59 ± 0.19 | 1.74 ± 0.19 |
| SAGGSAGGSAMEILSKEIIPNNDLIIIDIKVKKKNKEYIYKLIIKGDKIIKISEIEIDDAPSAGGSAGGSAG [r3_48_TrMRF] | 1.37 ± 0.13 | 2.15 ± 0.26 | 2.5 ± 0.081 |
| SAGGSAKVIAVPSLEEALKLAEEAAKEGKDIVVLFPDNRLLVVEVKPAPDDKPVLKLKVFEIPPELSAGGSA [r15_761_TrMRF] | 0.47 ± 0.049 | 0.767 ± 0.15 | 0.974 ± 0.072 |
| SAGGSAGGSAGMEITRDKTPDGVWTVTITVPRPDGPSITVTVTGSPDGDFAPEKIAAVLASAGGSAGGSAGG [r11_759_JUSTAS] | 1.15 ± 0.038 | 0.819 ± 0.13 | 0.078 ± 0.19 |
| SAGGSAMSLEELKGHLVRLTLPDGRVVVAPVKEMDEEAPVLVIEFGGKPILIPKDAPVKLEVLPPGSAGGSA [r15_355_TrMRF] | 0.962 ± 0.039 | 0.759 ± 0.062 | 0.581 ± 0.052 |
| SASAAEEIERALLPLPNIPTAPLATFTLPDAPVEVVSYDPVTGRVLVRLTGTGALFVFDPETGEAELLPSAG [r14_359_TrMRF] | 2.56 ± 0.16 | 2.7 ± 0.34 | 2.62 ± 0.054 |
| KTVMIMFKNPEQILNQLREARDDGKTVSIMFPDEWINELKNLGFKIDKITDVQPMPGNDSYMVEIKIKPKDS [r1_173_TrROS] | 1.29 ± 0.12 | 1.95 ± 0.2 | 2.31 ± 0.12 |
| SSPLINILTVEVTAETPSGGSFSKTFTFPASKYTEEEIREKIKEEYPDLTDIKITPKVTKIPPGPKILLASA [r9_841_JUSTAS] | 1.29 ± 0.07 | 1.76 ± 0.18 | 1.98 ± 0.18 |
| SAGGSAGGSAGGMRIRLENGEVIKIKNAKTKEELLNALKAIPGLKIEYDEETKELWIYRSAGGSAGGSAGGS [r10_792_TrROS_Hall] | 1.88 ± 0.075 | 2.22 ± 0.16 | 2.33 ± 0.097 |

| Sequence | folding stability dG unfold [1] [kcal/mol] | folding stability dG unfold [2] [kcal/mol] | folding stability dG unfold [3] [kcal/mol] |
| --- | --- | --- | --- |
| SAGGMGFEKVGTFKLEDDVIVEIYKGPEKKLVAKVYFPKTGKVIEDPGHPDESIEELIERIKAIAEEESAGG [r13_624_TrMRF] | 4.48 ± 0.39 | 4.2 ± 0.28 | 4.32 ± 0.07 |
| SAGGSAGGSLDPGEEVKIEITDWHPPNGYYRIKIEFPNGPPIDIWMPPDDPQQMKEQAKDLIKSAGGSAGGS [r20_167_TrROS] | -0.725 ± 0.46 | 0.107 ± 0.23 | 0.372 ± 0.36 |
| SAGMEAIRKKAEELAKKGKIFKITLTGPDGIPETKILSPEEFKKFLEEFPDPEAIASVEVEAYEPGKPISAG [r5_957_JUSTAS] | 2.35 ± 0.1 | 3.24 ± 0.1 | 3.78 ± 0.046 |
| SAGGSASVEVSVEEKDGTLTVTVTVEVDGKLVTVTVTLTLPPPPPLSAEELEKAREAEKEGKTVEVSAGGSA [r15_631_TrROS_Hall] | 1.24 ± 0.12 | 2.49 ± 0.11 | 2.77 ± 0.16 |
| SFEIEILDVDPDGWIVITIRYPSPDGKPLTPEEMEEIAEEIALELFPQFPDFKVTIEHDPESGTITIVIRSA [r9_485_TrROS] | 4.25 ± 0.35 | 4.15 ± 0.43 | 3.59 ± 0.3 |
| SAGGSPETKTISFKYPGNGMRIMVQVERDPADGKKKITINMENNPYMAERAKKALEELGLPVEIHPSAGGSA [r2_30_TrROS] | 1.38 ± 0.13 | 1.32 ± 0.12 | 1.14 ± 0.12 |
| SAPIKIEIDVHQPPPGDYMIMVRIRPPGDGKEFPRMFPFPPDDAEKILENLLSQFPGYEIDDIEPMRYPSAG [r14_969_TrROS] | 1.26 ± 0.049 | 1.29 ± 0.16 | 1.08 ± 0.15 |
| SAGGNNIYVHIQFKPKEQKMERTPDNGKWDMEYKWEIDITIYYPKGMSPEQAERLVNELREIFPGIKSAGGS [r8_306_TrROS] | 1.12 ± 0.072 | 1.99 ± 0.12 | 2.54 ± 0.047 |
| SAGGSAGGSAGGVKPGDFVLIKLTLTEKYYDPETGELIEEKEVELTILIPKGTSLEELKLSAGGSAGGSAGG [r7_591_TrROS_Hall] | 2.3 ± 0.17 | 2.17 ± 0.25 | 1.96 ± 0.089 |
| SAGGSAMTLRLELRVRLQVFNEDGELLGERELDIEIELEGEPLEVPPPPEIDPEEAARLLGLDPDGSAGGSA [r15_572_TrMRF] | 0.909 ± 0.098 | 2.37 ± 0.25 | 2.84 ± 0.039 |
| SAIKIKNVEFNDNGWMEIEIPYPENGREVTIRMDPNGNIQVEEYPPNDGKPKRKTIPGMSIEEILEELLSAG [r14_760_TrROS] | 1.08 ± 0.24 | 0.55 ± 0.33 | 0.25 ± 0.13 |
| SAGGGSLSDIATVDTSSYTDPNNPASVTVTNVTIPDGSTVTVTYNPTTGTVTVTTATDGTTTTTTIPSSAGG [r13_960_JUSTAS] | 1.89 ± 0.19 | 1.42 ± 0.15 | 0.917 ± 0.056 |
| SAGVVEELLKEFPDVEKVTSSSYPGPKVSQYVIYFPTPSGKKVTIKITVTQPRLPSNSTTSELSIELNDSAG [r5_398_JUSTAS] | 2.11 ± 0.12 | 2.08 ± 0.38 | 2.25 ± 0.12 |
| SKMYLVKIKIEVYKDGKLVKEEEIEIEVSEEEAKKLAEKLKEELPGYKVKIEIEVREIEPEDEELLKALESA [r9_782_TrROS_Hall] | 2.69 ± 0.15 | 3.61 ± 0.12 | 4.12 ± 0.054 |
| SSPEEMAEKLAKELNFDKIEIKTEKLDLPSGPSEATVATAKLYNPATGKEYVVKILKFPDGSYEIVIEKKSA [r9_724_JUSTAS] | 1.44 ± 0.042 | 2.28 ± 0.07 | 2.627 ± 0.015 |
| SAGGSAGGMEPLTRVTVELELPGGETRVVEGDDLEAVKERLKEELGLPDLVVKSVKTTPLPALESAGGSAGG [r6_406_JUSTAS] | 0.6 ± 0.045 | 0.857 ± 0.077 | 0.974 ± 0.027 |
| SAGGSAGGSAPPNLKIEIDLQRHPEDDHIFLEMEATYPDDGKELKVMIMINPDDGKIGIMIMSAGGSAGGSA [r18_383_TrROS] | 2.76 ± 0.22 | 3.34 ± 0.29 | 3.7 ± 0.29 |
| SAGGSAGGSAGGSMTITYDKENKTLTIKLPNGKKVLTVNLENMTPEQLKELAKKLGLEVSAGGSAGGSAGGS [r4_49_TrROS_Hall] | 3.18 ± 0.2 | 3.44 ± 0.11 | 3.62 ± 0.076 |
| SAGGILDLAAERNAVSVEVLEVNPEPPTVTVRLTYRNAAGEPRTATFTVELPPPAPPVPLVLPGEATFSAGG [r13_608_TrMRF] | 0.735 ± 0.059 | 1.85 ± 0.089 | 2.46 ± 0.11 |
| SMKKPIDLIKKLGYTLTSVTKLPNGTTLITFEHPDSTVTVTVNPDGNIKITTTNPKNGTTTTTTIPVNKLSA [r9_2_JUSTAS] | 1.95 ± 0.08 | 2.08 ± 0.15 | 2.31 ± 0.099 |
| SSATVTFTVELPDDSVIVSVRIDAEEYDPGPPWVRVTIEVEIYDKNGELLATLRFEFLLPREVLEELRKSSA [r9_234_TrMRF] | 4.23 ± 0.14 | 5.77 ± 0.66 | 5.74 ± 0.3 |
